According to patent US20030235863A1:

Target: FPR-GFP fusion protein (human) (UniProt P21462)
Assay: flow cytometry, LRG assembly on DCNi G beads with 30 nM FPR-GFP

Chain of FPR-GFP fusion protein (human) (P21462 other isoform, or with tags, fused parts or gaps): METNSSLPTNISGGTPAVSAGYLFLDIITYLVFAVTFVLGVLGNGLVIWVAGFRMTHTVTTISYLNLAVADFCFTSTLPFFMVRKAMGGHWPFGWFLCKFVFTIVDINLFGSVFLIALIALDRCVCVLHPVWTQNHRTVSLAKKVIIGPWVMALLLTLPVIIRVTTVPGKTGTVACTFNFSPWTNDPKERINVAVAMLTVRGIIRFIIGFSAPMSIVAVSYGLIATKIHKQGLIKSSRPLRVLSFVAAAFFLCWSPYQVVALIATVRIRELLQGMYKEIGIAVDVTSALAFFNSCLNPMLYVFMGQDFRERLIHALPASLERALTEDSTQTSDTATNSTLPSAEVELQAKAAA

fML (peptide)
EC50: 5.3 µM
